Laboratory results: patent publication US9719113B2 (priority 2014, dated 2017)

Legend:
QH4 strain = conditions: SA added to cell cultures at 0-1000 mg/L; QH4 cells
Description: All data points are reported as mean±s.d. from three independent experiments. […] All data points are reported as mean±s.d. from two independent experiments.

[1] = Screening SMOs in vivo (conversion of SA to catechol by whole cells); format: cell-based; conditions: E. coli BW25113 carrying pZE12-luc expression vector, 2 mM SA, 37° C., catechol formation rate
Description: To evaluate the activity of enzymes converting SA to catechol, E. coli BW25113 was transformed with the expression vectors pZE-ppbenABCD, pZE-paantABC, pZE-pfantABC and pZE-NahG, separately. The resultant transformants were inoculated in 3 ml LB liquid medium containing 100 μg/ml of ampicillin and grown aerobically at 37° C. The overnight cultures were inoculated into 20 ml fresh LB medium and left to grow at 37° C. till OD600 reached 0.6 and then induced with 0.25 mM of IPTG at 37° C. for additional 3 h. Then the cells were harvested, and re-suspended in M9Y medium (OD600=2.1-2.7). SA was added into the cell suspension to a final concentration of 2 mM. The flasks were incubated with shaking at 37° C. for 10 min for the SMO encoded by nahG^opt and 1 h for ppBenABCD, paAntABC, and pfAntABC. Samples were taken by removing cell pellets and the product (catechol) concentrations were measured with HPLC. The in vivo activity was expressed as μM/min/OD.
Following the reconstitution and optimization of an SA biosynthetic pathway, our subsequent effort was focused on constructing the SA degradation pathway. SMO catalyzes the first enzymatic step of SA degradation, and thus it is of great importance to have an efficient SMO available for the pathway assembly. […] A putative SMO (encoded by nahG) was identified from the genome of P. putida DOT-T1E. […]

[2] = In vitro SMO enzyme assay; format: biochemical, P. putida DOT-T1E; conditions: purified His-tagged enzyme 0.97 nM
Description: (A) Kinetic parameters of the SMO. The Km and Vmax values were estimated with OriginPro8 through non-linear regression of the Michaelis-Menten equation. The protein concentration [E] of the SMO in the reaction systems was 0.97 nM. The kcat value was calculated according to the formula kcat=Vmax/[E]. […] (B) Conversion of SA to MA using the wild type E. coli strain carrying pZE-NC. […] Error bars are defined as s.d.
To express and purify the enzyme, E. coli BL21 Star (DE3) was transformed with the expression plasmid pET-NahG. A fresh transformant was inoculated in 3 ml LB medium containing 100 μg/ml of ampicillin and grown aerobically at 37° C. Overnight cultures were inoculated into 50 ml fresh LB medium and left to grow at 37° C. till OD600 reached 0.6 and then induced at 30° C. with 0.5 mM IPTG for another 3 h. Cells were then harvested and lysed by French Press. The recombinant protein with an N-terminal multi-histidine tag was purified using His-Spin protein miniprep kit (ZYMO […]). The enzyme concentration was measured using BCA kit (Pierce Chemicals). The standard enzyme assay was performed by making an assay mixture containing 500 μM NADH, 10 μM FAD, 0.97 nM purified enzyme, and SA as the substrate. The final volume was adjusted to 1 ml with Kpi buffer (20 mM, pH=7.0). […] The reaction rates were calculated by measuring the formation of catechol via HPLC. […]

Molecule | SA concentration that completely inhibited the cell proliferation (QH4 strain) [mg/L] | In vivo activity [1] [μM/min/OD] | In vivo activity ([1]; listed as SMO encoded by nahG^opt) [μM/min/OD] | Km ([2]; SA 0 to 100 μM, 500 μM NADH, 10 μM FAD, pH 7.0, 37° C.) [µM] | kcat ([2]; substrate SA, kcat=Vmax/[E]) [s⁻¹]
O=C(O)c1ccccc1O [SA, salicylic acid] | 1000 |  |  |  | 
nahG^opt: salicylate 1-monoxygenase (SMO) from P. putida DOT-T1E, encoded by codon-optimized gene nahG^opt (protein, listed as Escherichia coli) MQNSTSALNVSIIGGGIAGVALALDLCRHAHLNVQLFEAAPAFGEVGAGVSFGANAVRAIAGLGIAEPYGKIADSNPAPWQDIWFEWRNGRDAKYLGCSVAEGVGQSSVHRADFLDALASQLPDGIAQFGKRAQRVEQDGEQVRVTFTDGSEHRCDLLIGADGIKSSIRDHVLQGLNQPLASPRFSGTCAYRGLIDSQQLREAYRARGVDEHLIDVPQMYLGLDGHILTFPVKQGRLINVVAFISDRSQPNPVWPSDTPWVRNATQAEMLAAFEGWDDAAQVLLECIPTPSLWALHDLAELPGYVHGRVGLIGDAAHAMLPHQGAGAGQGLEDAWLLARLLEDPKVLDKRPQAVLDAYDAVRRPRACRVQRTSFEAGELYEFRDPAVLADEERLGKVLAERFDWLWNHDMQEDLLQARELLGLRAQAA |  | 54.78 ± 1.65 | 54.78 | 4.37 | 96.56
